Measurements reported in the supplement of paper PMC9233669.
Variants at the floor of the assay were thinned out.

What was measured:
[1] = system: biotinyl-Val-oxazolone; test: self-aminoacylation, catalytic enhancement (BVO) (fold over background); higher = more active; k-Seq, kA / k0A0; sequences stand for … in GGGAAUGGAUCCACAUCUACGAAUUC…UUCACUGCAGACUUGACGAAGCUG
Summary of the method: (§1)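 Working in 50 μL HEPES/NaCl/KCl/MgCl2/CaCl2 buffer with 5% acetonitrile at pH 6.9–7.0, mutagenized RNA pools (0.43 μM; 21-nt variable region) were reacted with 2–1250 μM of each biotinyl-aminoacyl-oxazolone for 90 minutes at room temperature. Streptavidin capture followed, with quantification by triplicate qPCR and Illumina sequencing. Catalytic enhancement is reported as median kA over the uncatalyzed rate, the low-activity peak of a bimodal Gaussian fit to the data.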

[2] = system: biotinyl-Met-oxazolone; test: self-aminoacylation, catalytic enhancement (BMO) (fold over background); higher = more active; k-Seq, kA / k0A0; sequences stand for … in GGGAAUGGAUCCACAUCUACGAAUUC…UUCACUGCAGACUUGACGAAGCUG
Summary of the method: as §1

[3] = system: biotinyl-Trp-oxazolone; test: self-aminoacylation, catalytic enhancement (BWO) (fold over background); higher = more active; k-Seq, kA / k0A0; sequences stand for … in GGGAAUGGAUCCACAUCUACGAAUUC…UUCACUGCAGACUUGACGAAGCUG
Summary of the method: as §1

[4] = system: biotinyl-Leu-oxazolone; test: self-aminoacylation, catalytic enhancement (BLO) (fold over background); higher = more active; k-Seq, kA / k0A0; sequences stand for … in GGGAAUGGAUCCACAUCUACGAAUUC…UUCACUGCAGACUUGACGAAGCUG
Summary of the method: as §1

[5] = system: biotinyl-Ile-oxazolone; test: self-aminoacylation, catalytic enhancement (BIO) (fold over background); higher = more active; k-Seq, kA / k0A0; sequences stand for … in GGGAAUGGAUCCACAUCUACGAAUUC…UUCACUGCAGACUUGACGAAGCUG
Summary of the method: as §1

[6] = system: biotinyl-Phe-oxazolone; test: self-aminoacylation, catalytic enhancement (BFO) (fold over background); higher = more active; k-Seq, kA / k0A0; sequences stand for … in GGGAAUGGAUCCACAUCUACGAAUUC…UUCACUGCAGACUUGACGAAGCUG
Summary of the method: as §1

| Sequence | self-aminoacylation [1] | self-aminoacylation [2] | self-aminoacylation [3] | self-aminoacylation [4] | self-aminoacylation [5] | self-aminoacylation [6] |
| --- | --- | --- | --- | --- | --- | --- |
| CAACACGUCAAGCAAUCGGUC [Fam1B.1 aminoacylation ribozyme variant] | 1.22 | 1.44 | 1.47 | 1.37 | 1.11 | 1.33 |
| CAACACUACAAGCAAUCGGUC [Fam1B.1 aminoacylation ribozyme variant] | 1.01 | 0.956 | 0.713 | 0.914 | 0.955 | 0.958 |
| CAACACUUAAAGCAAUCGGUC [Fam1B.1 aminoacylation ribozyme variant] | 0.909 | 0.98 | 0.79 | 0.82 | 1.12 | 0.828 |
| CAACACUUCAACCAAUCGGUC [Fam1B.1 aminoacylation ribozyme variant] | 1.36 | 1.58 | 28.2 | 2.04 | 1.28 | 45.6 |
| CAACACUUCAAGCAAUCGGUG [Fam1B.1 aminoacylation ribozyme variant] | 2.73 | 4.13 | 3.87 | 4.86 | 3.09 | 4.92 |
| CAACUUCAAACAAUCGGCCUG [Fam1A.1 aminoacylation ribozyme variant] | 2.92 | 4.11 | 107 | 6.75 | 3.08 | 283 |
| CAACUUCAAUCAAUCGGUCUG [Fam1A.1 aminoacylation ribozyme variant] | 1.4 | 1.36 | 24 | 2.03 | 1.43 | 35.7 |
| CAAUACUUCAAGCAAUCGGUC [Fam1B.1 aminoacylation ribozyme variant] | 0.912 | 0.799 | 5.14 | 0.986 | 0.907 | 9.23 |
| CAGUUUGCUAACAGUCGCAAG [Fam3.1 aminoacylation ribozyme variant] | 1.16 | 1.83 | 1.32 | 1.6 | 1.31 | 2 |
| CAGUUUGCUAAUAGACGCAAG [Fam3.1 aminoacylation ribozyme variant] | 0.858 | 0.814 | 1.61 | 0.895 | 0.91 | 1.08 |
| CAGUUUGCUAAUAGUCGCAAG [Fam3.1 aminoacylation ribozyme variant] | 1.21 | 1.28 | 1.55 | 1.35 | 1.36 | 2.94 |
| CAGUUUGCUAGUAGUCGCAAG [Fam3.1 aminoacylation ribozyme variant] | 1.04 | 0.827 | 1.37 | 1.25 | 0.938 | 1.19 |
| CAGUUUGGUAAUAGUCGCAAG [Fam3.1 aminoacylation ribozyme variant] | 1.67 | 1.73 | 1.97 | 1.73 | 1.85 | 2.57 |
| CAUCACCUAGGUCAUCGGGUG [Fam2.2 aminoacylation ribozyme variant] | 4.05 | 6.18 | 5.76 | 6.23 | 3.15 | 21 |
| CCAAACUUCAAGCAAUAGGUC [Fam1B.1 aminoacylation ribozyme variant] | 0.602 | 0.574 | 0.458 | 0.527 | 0.605 | 0.911 |
| CCAAACUUCAAGCAAUCGGAC [Fam1B.1 aminoacylation ribozyme variant] | 1.1 | 0.662 | 0.602 | 0.789 | 0.912 | 1.14 |
| CCAAACUUCAAGCAAUCGGUG [Fam1B.1 aminoacylation ribozyme variant] | 4.43 | 5.65 | 6.12 | 8.21 | 4.67 | 32.4 |
| CCAAACUUCAAGCAAUCGUUC [Fam1B.1 aminoacylation ribozyme variant] | 0.93 | 0.66 | 0.803 | 0.621 | 0.743 | 0.813 |
| CCAAACUUCAAUCAAUCGGUC [Fam1B.1 aminoacylation ribozyme variant] | 1.28 | 1.43 | 23.5 | 1.73 | 1.29 | 36.8 |
| CCAAACUUGAAGCAAUCGGUC [Fam1B.1 aminoacylation ribozyme variant] | 0.996 | 0.87 | 0.693 | 0.828 | 0.898 | 0.596 |
| CCAAAGUUCAAGCAAUCGGUC [Fam1B.1 aminoacylation ribozyme variant] | 1.4 | 1.32 | 1.17 | 1.28 | 1.35 | 1.35 |

| Sequence | self-aminoacylation [1] | self-aminoacylation [2] | self-aminoacylation [3] | self-aminoacylation [4] | self-aminoacylation [5] | self-aminoacylation [6] |
| --- | --- | --- | --- | --- | --- | --- |
| CCAAUUCAAACAAUCGGUCUG [Fam1A.1 aminoacylation ribozyme variant] | 1.11 | 1.02 | 5.22 | 1.16 | 1.11 | 6.78 |
| CCACAAGUCAAGCAAUCGGUC [Fam1B.1 aminoacylation ribozyme variant] | 1.54 | 1.67 | 1.32 | 1.49 | 1.64 | 1.15 |
| CCACAAUUCAAGCAAUCGGAC [Fam1B.1 aminoacylation ribozyme variant] | 0.798 | 0.783 | 0.711 | 0.884 | 1.15 | 0.942 |
| CCACAAUUCAAGCAAUCGGUC [Fam1B.1 aminoacylation ribozyme variant] | 1.16 | 0.936 | 1.69 | 0.973 | 1.17 | 2.8 |
| CCACAAUUCAAGCAGUCGGUC [Fam1B.1 aminoacylation ribozyme variant] | 1.22 | 1.11 | 0.925 | 1.17 | 1.36 | 1.06 |
| CCACAAUUCAAGCAUUCGGUC [Fam1B.1 aminoacylation ribozyme variant] | 1.85 | 1.68 | 1.36 | 1.94 | 1.96 | 1.36 |
| CCACAAUUCGAGCAAUCGGUC [Fam1B.1 aminoacylation ribozyme variant] | 1.58 | 0.985 | 1.08 | 1.07 | 1.28 | 0.736 |
| CCACACAUCAAACAAUCGGUC [Fam1B.1 aminoacylation ribozyme variant] | 0.92 | 0.715 | 1.92 | 0.749 | 0.795 | 3.04 |
| CCACACAUCAAGAAAUCGGUC [Fam1B.1 aminoacylation ribozyme variant] | 0.776 | 0.61 | 0.645 | 0.792 | 0.732 | 1.2 |
| CCACACAUCAAGCAACCGGUC [Fam1B.1 aminoacylation ribozyme variant] | 1.13 | 1.21 | 1.14 | 0.817 | 1.4 | 1.29 |
| CCACACAUCAAGCAAUAGGUC [Fam1B.1 aminoacylation ribozyme variant] | 1.02 | 0.698 | 0.736 | 0.574 | 0.864 | 1.52 |
| CCACACAUCAAGCAAUCGGAC [Fam1B.1 aminoacylation ribozyme variant] | 1.03 | 0.748 | 0.906 | 0.808 | 0.897 | 0.446 |
| CCACACAUUAAGCAAUCGGUC [Fam1B.1 aminoacylation ribozyme variant] | 0.867 | 0.709 | 0.62 | 0.667 | 0.966 | 1 |
| CCACACCUCAAACAAUCGGUC [Fam1B.1 aminoacylation ribozyme variant] | 1.13 | 1.04 | 4.47 | 1.29 | 1.24 | 7.05 |
| CCACACCUGAAGCAAUCGGUC [Fam1B.1 aminoacylation ribozyme variant] | 1.18 | 0.903 | 0.911 | 0.946 | 1.01 | 0.952 |
| CCACACGCCAAGCAAUCGGUC [Fam1B.1 aminoacylation ribozyme variant] | 1.23 | 1.29 | 0.555 | 0.862 | 0.961 | 0.829 |
| CCACACGUCAAGCAAUCAGUC [Fam1B.1 aminoacylation ribozyme variant] | 0.88 | 0.665 | 0.482 | 0.713 | 0.647 | 0.738 |
| CCACACGUCAAGCAAUCGAUC [Fam1B.1 aminoacylation ribozyme variant] | 0.921 | 0.657 | 0.645 | 0.62 | 0.667 | 0.631 |
| CCACACGUCAAGCAAUCGGAC [Fam1B.1 aminoacylation ribozyme variant] | 2.03 | 1.14 | 0.681 | 1.36 | 1.53 | 0.667 |
| CCACACGUCAAGCAAUCGGUG [Fam1B.1 aminoacylation ribozyme variant] | 2.78 | 2.02 | 2.35 | 1.59 | 1.63 | 9.7 |
| CCACACUAAAAGCAAUCGGUC [Fam1B.1 aminoacylation ribozyme variant] | 0.959 | 0.688 | 0.746 | 0.677 | 0.867 | 0.761 |
